These results are taken from US20250186614A1, “COMPACT DRUG RESPONSIVE DOMAINS FOR REGULATION OF FUNCTION/ABUNDANCE AND DELIVERY OF POLYPEPTIDE PAYLOADS” (OBSIDIAN THERAPEUTICS, INC., priority 2022, published 2025).

Where two headings read alike, the source gives them in different places.

Format in all cases: cell-based
The test system of assay [1] is HEK-293T cells. In words: Tacrolimus (FK506) response of FKBP13-AcGFP-mCherry constructs transiently transfected into HEK-293T cells, flow cytometry. To be noted: for AcGFP stabilization / fluorescence signal in response to FK506: 0, 1 or 10 μM FK506, 24 hours; for Fold Change: tacrolimus response of FKBP13 DRD-AcGFP construct, Table 3. From the text: The DRD in FKBP13-039 was a wildtype (WT) FKBP13 (i.e., a 98 amino acid fragment of SEQ ID NO: 1). […] The FKBP13-043, FKBP13-044, and FKBP13-045 constructs included DRD-genic mutations D90G, M54A and M96V, respectively, and three binding site mutations (Q72R, Q84E, and A117H).
A general note: Flow cytometry measures light scatter and fluorescence of single cells or particles in a stream.

Assay [2] has as its system Jurkat cells. Briefly: Tacrolimus dose response of FKBP13-AcGFP-mCherry constructs stably transduced into Jurkat cells, GFP MFI by flow cytometry. To be noted: for EC90 / Tacrolimus FC: tacrolimus, Table 14; for Tacrolimus FC: fold change; for Fold Change: tacrolimus dose response. An outline of the steps: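 Jurkat E6-1 cells lentivirally transduced with FKBP13-AcGFP-mCherry constructs to 10-25% mCherry+ (day 5) were dosed with tacrolimus. GFP geometric MFI in mCherry+ cells was measured by flow cytometry and fitted to dose-response curves.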

Assay [3] relates to Jurkat cells. Briefly: Sirolimus (rapamycin) dose response of FKBP13 constructs stably transduced into Jurkat cells, flow cytometry. As to conditions: rapamycin, Table 14; for Rapamycin FC: fold change. The method, then: Normalized EC50 values were calculated from the mCherry normalized GFP MFI values, which accounted for any differences in mCherry intensity between samples.

Assay [4] in a line: Example 4: dose response of FKBP constructs 160-255, Ec50, Ec90 and fold change (raw and normalized to mCherry). As to conditions: for FC (fold change): fold change during initial analysis. On the procedure: Additional experiments were performed for constructs FKBP-160-292.
Setting [5] is: read-out: Tacrolimus EC90 (Norm), normalized.
The mark [6] stands for this setting: normalized, read-out: Rapamycin EC90 (Norm).
[7] abbreviates: FKBP constructs 160-255, not normalized, read-out: EC90.
The mark [8] stands for this setting: normalized to mCherry, read-out: EC90 (Norm).

B1: FKBP-043: FKBP13 DRD Q72R, Q84E, A117H, D90G; SEQ ID NO: 6 (protein)
chain: HCPIKSRKGDVLHMHYTGKLEDGTEFDSSLPRNQPFVFSLGTGEVIKGWGQGLLGMCEGEKRKLVIPSELGYGERGHPPKIPGGATLVFEVELLKIER
modifications: Description of sequence: FKBP13-AcGFP-mCherry Fusion; Construct Name: FKBP-043; FKBP13 DRD in Construct : FKBP13 (mutated to match FKBP12 active site - Q72R Q84E A117H) (DRD - D90G)
Turning to B1, in assay [1] (FIG. 1B), the “AcGFP stabilization / fluorescence signal in response to FK506” value was “increased more effectively” and the DRD activity entry is reported as “had DRD activity”. Further, the Fold Change in assay [1] is reported as 26.5.

B2: FKBP-042: FKBP13 DRD M96V; SEQ ID NO: 5 (protein)
chain: HCPIKSRKGDVLHMHYTGKLEDGTEFDSSLPQNQPFVFSLGTGQVIKGWDQGLLGVCEGEKRKLVIPSELGYGERGAPPKIPGGATLVFEVELLKIER
modifications: Description of sequence: FKBP13-AcGFP-mCherry Fusion; Construct Name: FKBP-042; FKBP13 DRD in Construct : FKBP13 (DRD - M96V)
B2 registered a Fold Change in assay [1] of 1.3.

B3: FKBP-045: FKBP13 DRD Q72R, Q84E, A117H, M96V; SEQ ID NO: 8 (protein)
chain: HCPIKSRKGDVLHMHYTGKLEDGTEFDSSLPRNQPFVFSLGTGEVIKGWDQGLLGVCEGEKRKLVIPSELGYGERGHPPKIPGGATLVFEVELLKIER
modifications: Description of sequence: FKBP13-AcGFP-mCherry Fusion; Construct Name: FKBP-045; FKBP13 DRD in Construct : FKBP13 (mutated to match FKBP12 active site - Q72R Q84E A117H) (DRD - M96V)
In the case of B3, the “AcGFP stabilization / fluorescence signal in response to FK506” value in assay [1] (FIG. 1B) is recorded as “increased more effectively”. The molecule also showed a Fold Change in assay [1] of 23.2.

B4: FKBP-039: FKBP13 (WT) fragment DRD-AcGFP-mCherry; SEQ ID NO: 2 (protein)
chain: HCPIKSRKGDVLHMHYTGKLEDGTEFDSSLPQNQPFVFSLGTGQVIKGWDQGLLGMCEGEKRKLVIPSELGYGERGAPPKIPGGATLVFEVELLKIER
modifications: Description of sequence: FKBP13-AcGFP-mCherry Fusion; Construct Name: FKBP-039; FKBP13 DRD in Construct : FKBP13 (WT)
Molecule B4 showed a Fold Change in assay [1] of 4.9.

B5: FKBP-185 (protein)
chain: HCPIKSRKGAVLHAHYIGKLEDGTEFDSSLPRNQPFVFSLGTGERIKGWDQGLLGMCEGEKRKLVIPSELGYGERGWPPKIPGGATLVFEVELLKLER
modifications: Description of sequence: Construct Name: FKBP-185; Mutation(s): Q72R Q84E A117W V85R DRD M54A D50L T57I I136L
For the molecule B5, the EC90 (commonly the concentration at which the effect reaches the 90% level) in assay [2] (setting [5]) stood at 23.4 µM; in assay [2] (read-out: Tacrolimus EC90), 22.1 µM; in assay [3] (read-out: Rapamycin EC90) it was 5.34 µM; in assay [3] (setting [6]) it was 22 µM; in assay [4] (setting [7]) it was 22.1 µM; in assay [4] (setting [8]), 23.4 µM. Besides, the “Tacrolimus FC” value in assay [2] was 40.2. For the same molecule, in assay [3], the “Rapamycin FC” value worked out at 2. The “FC (fold change)” value in assay [4] amounted to 40.2.

B6: FKBP-040: FKBP13 DRD D90G; SEQ ID NO: 3 (protein)
chain: HCPIKSRKGDVLHMHYTGKLEDGTEFDSSLPQNQPFVFSLGTGQVIKGWGQGLLGMCEGEKRKLVIPSELGYGERGAPPKIPGGATLVFEVELLKIER
modifications: Description of sequence: FKBP13-AcGFP-mCherry Fusion; Construct Name: FKBP-040; FKBP13 DRD in Construct : FKBP13 (DRD - D90G)
With B6, the Fold Change in assay [1] was found to be 1.

B7: FKBP-186 (protein)
chain: HCPIKSRKGDVLHAHYTGKLEDGTEFDSSLPRNQPFVFSLGTGERIKGWDQGLLGMCEGEKRKLVIPSELGYGEREWPPKIPGGATLVFEVELLKIER
modifications: Description of sequence: Construct Name: FKBP-186; Mutation(s): Q72R Q84E A117W V85R DRD M54A G116E
As for B7, the EC90 was found to be 21 µM in assay [2] (setting [5]); 17.9 µM in assay [2] (read-out: Tacrolimus EC90); 5.87 µM in assay [3] (read-out: Rapamycin EC90); 5.22 µM in assay [3] (setting [6]); 17.9 µM in assay [4] (setting [7]); 21 µM in assay [4] (setting [8]). The “Tacrolimus FC” value in assay [2] came out at 19. In addition, the “Rapamycin FC” value in assay [3] is 1.7. Also, the “FC (fold change)” value in assay [4] was 19.0.

B8: FKBP-041: FKBP13 DRD M54A; SEQ ID NO: 4 (protein)
chain: HCPIKSRKGDVLHAHYTGKLEDGTEFDSSLPQNQPFVFSLGTGQVIKGWDQGLLGMCEGEKRKLVIPSELGYGERGAPPKIPGGATLVFEVELLKIER
modifications: Description of sequence: FKBP13-AcGFP-mCherry Fusion; Construct Name: FKBP-041; FKBP13 DRD in Construct : FKBP13 (DRD - M54A)
Regarding B8, the Fold Change in assay [1] was 7.8.

B9: FKBP-189 (protein)
chain: HCPIKSRKGDVLGAHYTGKLEDGTEFDSSLPLNQPFVFSLGTGERIKGWDQGLLGMCEGEKRKLVIPSELGYGERGWPPKIPGGATLVFEVELLKIER
modifications: Description of sequence: Construct Name: FKBP-189; Mutation(s): Q72R Q84E A117W V85R DRD M54A H53G R72L
B9: the EC90 in assay [2] (setting [5]) worked out at 30.1 µM; in assay [2] (read-out: Tacrolimus EC90) it was 25.8 µM; in assay [3] (read-out: Rapamycin EC90), 5.47 µM; in assay [3] (setting [6]), 5.53 µM; in assay [4] (setting [7]), 25.8 µM; in assay [4] (setting [8]), 30.1 µM. Also, in assay [2], the “Tacrolimus FC” value was found to be 23. Besides, in assay [3], the “Rapamycin FC” value is 2.5. Besides, the “FC (fold change)” value in assay [4] is given as 23.0.

B10: FKBP-044: FKBP13 DRD Q72R, Q84E, A117H, M54A; SEQ ID NO: 7 (protein)
chain: HCPIKSRKGDVLHAHYTGKLEDGTEFDSSLPRNQPFVFSLGTGEVIKGWDQGLLGMCEGEKRKLVIPSELGYGERGHPPKIPGGATLVFEVELLKIER
modifications: Description of sequence: FKBP13-AcGFP-mCherry Fusion; Construct Name: FKBP-044; FKBP13 DRD in Construct : FKBP13 (mutated to match FKBP12 active site - Q72R Q84E A117H) (DRD - M54A)
Take B10: the “AcGFP stabilization / fluorescence signal in response to FK506” value in assay [1] (FIG. 1B) is on record as “increased more effectively”. Moreover, the Fold Change in assay [1] came to 9.4; in assay [2] (Jurkat cells stably transduced (FIG. 4), Table 4), 12.6; in assay [2] (Jurkat cells stably transduced (FIG. 10), Table 5), 11.805. For the same molecule, the “EC50 and fold-change characteristics” value in assay [2] (tacrolimus top concentration 10 μM, 24 hr, FIG. 2) is “best EC50 and fold-change characteristics”.

B11: FKBP-187 (protein)
chain: HCPIKSRKGDVLHAHYTGKLEDGTEFDSSLPRNQPFVFSGGTGERIKGWDQGLLGMCEGEKRKLVIPSELGYGERGWPPKIPGGATLVFEVELLKIER
modifications: Description of sequence: Construct Name: FKBP-187; Mutation(s): Q72R Q84E A117W V85R DRD M54A L80G
In the case of B11, the EC90 in assay [2] (setting [5]) was 21.3 µM; in assay [2] (read-out: Tacrolimus EC90) it was 14.5 µM; in assay [3] (read-out: Rapamycin EC90), 5.31 µM; in assay [3] (setting [6]) it was 5.66 µM; in assay [4] (setting [7]), 14.5 µM; in assay [4] (setting [8]) it was 21.3 µM. Moreover, the “Tacrolimus FC” value in assay [2] is reported as 24. For the same molecule, the “Rapamycin FC” value in assay [3] was 2.3. Besides, the “FC (fold change)” value in assay [4] turned out to be 24.0.

B12: FKBP-188 (protein)
chain: HCPIKSRKGDVLHAHYTGKLEDGTEFDSSLPRNQPFVSSLGTGERIKGWDQGLLGMCEGEKRKLVIPSELGYGERGWPPKIPGGATLVFEVELLKIER
modifications: Description of sequence: Construct Name: FKBP-188; Mutation(s): Q72R Q84E A117W V85R DRD M54A F78S
Consider B12, for which the EC90 came out at 20.8 µM in assay [2] (setting [5]); 16.6 µM in assay [2] (read-out: Tacrolimus EC90); 5.41 µM in assay [3] (read-out: Rapamycin EC90); 5.83 µM in assay [3] (setting [6]); 16.6 µM in assay [4] (setting [7]); 20.8 µM in assay [4] (setting [8]). Also, the “Tacrolimus FC” value in assay [2] is reported as 20.5. Besides, the “Rapamycin FC” value in assay [3] was determined as 2.6. In assay [4], the “FC (fold change)” value stood at 20.5.
